Data from PMC6726503 (2019).

T1: TGF-β2 (Homo sapiens, UniProt P61812)
T1 chain: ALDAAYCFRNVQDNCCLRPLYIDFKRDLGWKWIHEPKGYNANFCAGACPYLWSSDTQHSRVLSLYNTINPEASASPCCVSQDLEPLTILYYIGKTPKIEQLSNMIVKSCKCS


Target: T1, TGF-β2
Assay: SPR

Kd [nM]	Binder
0.5	betaglycan O-ZP (protein) GPEPSTRCELSPINASHPVQALMESFTVLSGCASRGTTGLPREVHVLNLRSTDQGPGQRQREVTLHLNPIASVHTHHKPIVFLLNSPQPLVWHLKTERLAAGVPRLFLVSEGSVVQFPSGNFSLTAETEERNFPQENEHLLRWAQKEYGAVTSFTELKIARNIYIKVGEDQVFPPTCNIGKNFLSLNYLAEYLQPKAAEGCVLPSQPHEKEVHIIELITPSSNPYSAFQVDIIVDIRPAQEDPEVVKNLVLILKCKKSVNWVIKSFDVKGNLKVIAPNSIGFGKESERSMTMTKLVRDDIPSTQENLMKWALDNGYRPVTSYTMAPVANRFHLRLENNEEMRDEEVHTIPPELRILLDPDHPPALDNPLFPGEGSPNGGLPFPFPDIPRRGWKEGEDRIPRPKQPIVPSVQLLPDHREPEEVQGGVDIALSVKCDHEKMVVAVDKDSFQTNGYSGMELTLLDPSCKAKMNGTHFVLESPLNGCGTRHRRSTPDGVVYYNSIVVQAPSPGDSSGWPDGYEDLESGDNGFPGDGDEGETAPLSRAGVVVFNCSLRQLRNPSGFQGQLDGNATFNMELYNTDLFLVPSPGVFSVAENEHVYVEVSVTKADQDLGFAIQTCFLSPYSNPDRMSDYTIIENICPKDDSVKFYSSKRVHFPIPHAEVDKKRFSFLFKSVFNTSLLFLHCELTLCSRKKGSLKLPRCVTPDDACTSLDATMIWTMMQNKKTFTKPLAVVLQVDYKENVPSTKDSSPIPPPPPQIFHGLDTL
10	betaglycan O (protein) GPEPSTRCELSPINASHPVQALMESFTVLSGCASRGTTGLPREVHVLNLRSTDQGPGQRQREVTLHLNPIASVHTHHKPIVFLLNSPQPLVWHLKTERLAAGVPRLFLVSEGSVVQFPSGNFSLTAETEERNFPQENEHLLRWAQKEYGAVTSFTELKIARNIYIKVGEDQVFPPTCNIGKNFLSLNYLAEYLQPKAAEGCVLPSQPHEKEVHIIELITPSSNPYSAFQVDIIVDIRPAQEDPEVVKNLVLILKCKKSVNWVIKSFDVKGNLKVIAPNSIGFGKESERSMTMTKLVRDDIPSTQENLMKWALDNGYRPVTSYTMAPVANRFHLRLENNEEMRDEEVHTIPPELRILLDPDHPPALDNPLFPGEGSPNGGLPFPFPD
